Six substances from US20140107315A1 can be followed below.

The target of assay [1] is human immunoglobulin G drug separated from human plasma (Gammagard, Baxter) (human). Description: SPR (Biacore 3000), human IgG immobilized on CM5 chip, ligand as analyte, 25 C, pH 7.4, 1:1 model. In general terms: In SPR one partner is held on a chip, and binding of the other changes the refractive index at the surface.
For assay [2], the target named is human IgG (Gamma globulin, Nichiyaku) (human). Kind of assay: affinity chromatography, ligand immobilized on HiTrap NHS-activated HP (6.5 mg/mL-gel), 1 mg/mL human IgG at 1.9 mL/min, 5% breakthrough.
For assay [3], the target named is human immunoglobulin G drug separated from human plasma (Gammagard, Baxter) (human). Kind of assay: SPR (Biacore) as in Example 3, human IgG immobilized on chip, 1:1 model.

For “C-K04R/K07R/G29A/K35R/K42R/K49R/K50R/K58G.1d (from pGEX-2T, Example 2) (designed binder)”, the Ka in assay [1] came to 4.8e+07 M⁻¹.

Substance “C-K04R/K07R/G29A/K35R/K42R/K49Q/K50R/K58G.1d (designed binder)” gave a Ka in assay [1] of 3.3e+07 M⁻¹.

Substance “C-K04R/K07E/G29A/K35R/K42R/K49R/K50R/K58G.1d (designed binder)” displayed a Ka in assay [1] of 1.1e+07 M⁻¹.

Take “C-K04R/K07R/G29A/K35R/K42R/K49R/K50R/K58G.1d with Ser-Lys added at the C terminal (Brevibacillus, Example 4) (designed binder)”: the 5% antibody dBC in assay [2] came to 25.7 mg/mL-gel. Also, in assay [3], the Ka is 2.2e+07 M⁻¹.

“C-K04R/K07E/G29A/K35R/K42R/K49R/K50H/K58G.1d (designed binder)” displayed a Ka in assay [1] of 2.7e+07 M⁻¹.

Take “C-K04R/K07D/G29A/K35R/K42R/K49R/K50H/K58G.1d (designed binder)”: the Ka in assay [1] came out at 1.3e+07 M⁻¹.
